The target of this experiment is extracellular domain of human DPP4 (residues 39-766), wild type (human), P27487. As to the kind of experiment: nonreducing SDS-PAGE. The following applies: remark: other sources report otherwise.

B1: extracellular domain of human DPP4 (residues 39-766), wild type, P27487 39-766 (domain or fragment)
chain: SRKTYTLTDYLKNTYRLKLYSLRWISDHEYLYKQENNILVFNAEYGNSSVFLENSTFDEFGHSINDYSISPDGQFILLEYNYVKQWRHSYTASYDIYDLNKRQLITEERIPNNTQWVTWSPVGHKLAYVWNNDIYVKIEPNLPSYRITWTGKEDIIYNGITDWVYEEEVFSAYSALWWSPNGTFLAYAQFNDTEVPLIEYSFYSDESLQYPKTVRVPYPKAGAVNPTVKFFVVNTDSLSSVTNATSIQITAPASMLIGDHYLCDVTWATQERISLQWLRRIQNYSVMDICDYDESSGRWNCLVARQHIEMSTTGWVGRFRPSEPHFTLDGNSFYKIISNEEGYRHICYFQIDKKDCTFITKGTWEVIGIEALTSDYLYYISNEYKGMPGGRNLYKIQLSDYTKVTCLSCELNPERCQYYSVSFSKEAKYYQLRCSGPGLPLYTLHSSVNDKGLRVLEDNSALDKMLQNVQMPSKKLDFIILNETKFWYQMILPPHFDKSKKYPLLLDVYAGPCSQKADTVFRLNWATYLASTENIIVASFDGRGSGYQGDKIMHAINRRLGTFEVEDQIEAARQFSKMGFVDNKRIAIWGWSYGGYVTSMVLGSGSGVFKCGIAVAPVSRWEYYDSVYTERYMGLPTPEDNLDHYRNSTVMSRAENFKQVEYLLIHGTADDNVHFQQSAQISKALVDVGVDFQAMWYTDEDHGIASSTAHQHIYTHMSHFIKQCFSLP
modifications: here or on the partner: glycosylated (sites not given); glycosylated (sites not given)
B1 came in with a dimer percent of 40.8%.

For the origin of these results see publication PMC8669218.
